Measured values as given in patent publication US20020019341A1 (Stanford University, published 2002).

Experiments:
human CCR4 (human) = human CCR4 (human) (UniProt P51679); experiment: cell-based or functional assay
integrin α4β7 = molecular target: T1, integrin α4β7 (human, UniProt P13612 34-1032; P26010 20-798); experiment: cell adhesion to MAdCAM-1 transfectants, elution with 0.5mM EDTA
T1 construct: whole, on cells; also called a4p7
T1 sequence (P13612 34-1032, chain 1 of 2): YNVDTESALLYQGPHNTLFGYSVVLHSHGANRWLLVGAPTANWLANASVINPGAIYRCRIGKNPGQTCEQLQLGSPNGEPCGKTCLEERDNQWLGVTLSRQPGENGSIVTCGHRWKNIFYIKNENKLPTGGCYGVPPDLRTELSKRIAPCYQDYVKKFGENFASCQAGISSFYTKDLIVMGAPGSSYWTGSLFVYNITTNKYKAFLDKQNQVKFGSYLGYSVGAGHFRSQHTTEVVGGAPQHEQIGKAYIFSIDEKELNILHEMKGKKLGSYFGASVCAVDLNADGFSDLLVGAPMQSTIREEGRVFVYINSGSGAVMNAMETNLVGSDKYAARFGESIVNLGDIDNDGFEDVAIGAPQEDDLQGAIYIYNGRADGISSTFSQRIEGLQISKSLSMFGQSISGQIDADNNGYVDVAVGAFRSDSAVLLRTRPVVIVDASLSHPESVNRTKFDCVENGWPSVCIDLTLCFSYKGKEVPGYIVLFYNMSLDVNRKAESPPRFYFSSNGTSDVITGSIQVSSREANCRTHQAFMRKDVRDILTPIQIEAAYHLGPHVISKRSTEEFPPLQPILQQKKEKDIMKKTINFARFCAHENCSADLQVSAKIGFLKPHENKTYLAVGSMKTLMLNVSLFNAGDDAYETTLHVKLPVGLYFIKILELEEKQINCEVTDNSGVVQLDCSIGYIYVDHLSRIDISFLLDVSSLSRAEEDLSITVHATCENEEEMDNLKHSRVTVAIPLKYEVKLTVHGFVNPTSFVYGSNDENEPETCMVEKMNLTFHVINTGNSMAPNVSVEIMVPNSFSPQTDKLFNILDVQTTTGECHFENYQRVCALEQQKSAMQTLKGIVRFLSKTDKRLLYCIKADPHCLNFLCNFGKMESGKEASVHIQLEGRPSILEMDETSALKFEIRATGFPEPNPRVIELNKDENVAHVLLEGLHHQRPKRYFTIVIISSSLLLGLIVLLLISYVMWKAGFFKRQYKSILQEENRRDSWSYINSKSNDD
T1 sequence (P26010 20-798, chain 2 of 2): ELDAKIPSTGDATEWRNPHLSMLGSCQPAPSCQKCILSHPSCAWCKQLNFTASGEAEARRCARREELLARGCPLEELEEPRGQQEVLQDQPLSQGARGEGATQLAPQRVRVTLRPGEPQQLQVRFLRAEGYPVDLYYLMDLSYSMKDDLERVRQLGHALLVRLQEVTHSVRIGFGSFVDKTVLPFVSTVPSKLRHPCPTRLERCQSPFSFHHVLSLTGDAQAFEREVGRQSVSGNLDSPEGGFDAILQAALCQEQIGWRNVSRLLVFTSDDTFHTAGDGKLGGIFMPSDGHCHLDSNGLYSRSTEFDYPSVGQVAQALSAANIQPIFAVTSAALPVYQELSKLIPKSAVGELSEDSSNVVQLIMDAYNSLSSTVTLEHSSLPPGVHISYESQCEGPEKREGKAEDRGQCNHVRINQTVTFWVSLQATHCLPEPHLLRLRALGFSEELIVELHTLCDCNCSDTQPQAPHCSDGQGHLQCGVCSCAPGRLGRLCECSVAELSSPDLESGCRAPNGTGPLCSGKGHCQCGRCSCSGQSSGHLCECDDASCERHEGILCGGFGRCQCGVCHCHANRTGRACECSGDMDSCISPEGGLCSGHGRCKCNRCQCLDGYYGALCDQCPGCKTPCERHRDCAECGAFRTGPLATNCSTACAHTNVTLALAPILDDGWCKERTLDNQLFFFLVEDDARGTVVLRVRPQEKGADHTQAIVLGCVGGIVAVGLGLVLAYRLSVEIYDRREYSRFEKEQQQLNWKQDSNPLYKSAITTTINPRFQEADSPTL

human CCR4 (human), sequence (P51679 whole entry): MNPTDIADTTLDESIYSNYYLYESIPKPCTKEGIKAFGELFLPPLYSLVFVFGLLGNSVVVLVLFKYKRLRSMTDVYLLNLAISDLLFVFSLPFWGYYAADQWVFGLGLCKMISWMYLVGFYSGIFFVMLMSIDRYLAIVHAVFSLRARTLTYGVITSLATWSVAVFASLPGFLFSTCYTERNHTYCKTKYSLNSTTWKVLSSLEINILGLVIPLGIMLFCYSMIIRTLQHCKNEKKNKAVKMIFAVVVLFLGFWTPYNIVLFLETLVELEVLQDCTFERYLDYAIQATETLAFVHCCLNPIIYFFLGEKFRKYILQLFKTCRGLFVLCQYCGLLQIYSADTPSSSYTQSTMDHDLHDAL

Q: With “human TARC (thymus and activation-regulated chemokine) (from UniProt Q92583 24-94) (ligand)” as the molecule, how does the rapid adhesion of α4β7(-) memory CD4+ lymphocytes to immobilized ICAM-1 (static assay, TARC at 1 µM) (% of input cells) (human CCR4 (human)) read?
A: The rapid adhesion of α4β7(-) memory CD4+ lymphocytes to immobilized ICAM-1 (static assay, TARC at 1 µM) (% of input cells) was < 50.

B1: murine MAdCAM-1 (receptor, UniProt Q61826 22-405, looked up)
chain: QSFQVNPPESEVAVAMGTSLQITCSMSCDEGVARVHWRGLDTSLGSVQTLPGSSILSVRGMLSDTGTPVCVGSCGSRSFQHSVKILVYAFPDQLVVSPEFLVPGQDQVVSCTAHNIWPADPNSLSFALLLGEQRLEGAQALEPEQEEEIQEAEGTPLFRMTQRWRLPSLGTPAPPALHCQVTMQLPKLVLTHRKEIPVLQSQTSPKPPNTTSAEPYILTSSSTAEAVSTGLNITTLPSAPPYPKLSPRTLSSEGPCRPKIHQDLEAGWELLCEASCGPGVTVRWTLAPGDLATYHKREAGAQAWLSVLPPGPMVEGWFQCRQDPGGEVTNLYVPGQVTPNSSSTVVLWIGSLVLGLLALVFLAYRLWKCYRPGPRPDTSSCTHL
notes: whole, on cells; CHO cells transfected with murine MAdCAM-1; also called mucosal addressin cell adhesion molecule
Q: Does B1 bind (integrin α4β7)?
A: Result: binds
